Measurements as given in the DeepSol protein solubility set.

Test: soluble on expression in E. coli; label from the status in PepcDB or PDB records

Sequence	soluble on expression in E. coli
MGSDKIHHHHHHMTVMNAYQELESQGLIYSKEKSGYFVAEQIALKPLEQYSIVSLNSKIEINSLVFKYLKSIQHESVVPFGSAFPDSQLLAAPKLIQIMGQLARQRQSYDQTASLPPGNLALRKLIAQRYCMQGIQTDPDDIVITSGGLDALNLSLQAVAKPGDYILLQQTVFYGAWQAAERLGLKVITIPEHPQHGFDLEAFEQVIHTYPIKVCWLMLNSHNPIGFTVSDEIKYKIAKLLHEHQIYLIEDDVYEELYYGGQKPLSMKYFDQQNLVLHCSSFSKTLGAGFRVGWVYAGKFSDHIQHLQLMSTISVNALIQNALVEFLSHHHYEKHLRTLRLSLERYKKQFYHYLKQHLPAICEIYYYPSGYFLWVKLPHKLDSMQIYEELIQQDIGVAPSPLFSVLPAQQHYLRINCSFEWNEKIQAALDQVIKTIQQRVEASL	not soluble
MGSDKIHHHHHHMTVQRREKGSSITRVLEIIEAISRAERPMSPAELAFLLDIPKPSIHRLLQQLEADNYVQINMRGLLVPGDRMHSIALGVLHSSRFKALRQAILKKLAETIGETCGIAIPDGIEMIYYDRVQTNWPLRVNLPVGSHTPVACTASGKLYLSSLPKERRHRIIGKLSLEKLARNTLIESESLEKELINIQANELGTDNEEFIDGMVACSVPIKDQDGKLFACLFTHAPVIRKSLDELLAFEPALRHAAIELGDLLKEQ	not soluble
MGSDKIHHHHHHMTVRTRVTDLLEIEHPILMGGMAWAGTPTLAAAVSEAGGLGIIGSGAMKPDDLRKAISELRQKTDKPFGVNIILVSPWADDLVKVCIEEKVPVVTFGAGNPTKYIRELKENGTKVIPVVASDSLARMVERAGADAVIAEGMESGGHIGEVTTFVLVNKVSRSVNIPVIAAGGIADGRGMAAAFALGAEAVQMGTRFVASVESDVHPVYKEKIVKASIRDTVVTGAKLGHPARVLRTPFARKIQEMEFENPMQAEEMLVGSLRRAVVEGDLERGSFMVGQSAGLIDEIKPVKQIIEDILKEFKETVEKLRGYIEE	soluble
MGSDKIHHHHHHMTWRIVHIHQSEKMRLKLDNLVIKKQGDEFTIPLSDISIIVAEGGDTVVTLRLLSALSKYNIALIVCDNHHLPTGIYHSQNGHFRAYKKLQAQLSWAPLQKDKLWQIIIYFKITNQQDVLAMQEKSLSTIQLLSDYREHIELGDRTNREGHAAKVYFNELFGKQFVRLTQQETDAVNAGLNYGYTIFRAQMARIIAGYGLNALIGIFHKNEYNQFNLADDLMEPFRQIVDVWVYMNLREADFLTYQHRLELTNLLNAKIRYGKENCSVTVAMDKFVKGFIRCIEDKDTNQFFCPVVSSLEMEKL	not soluble
MGSDKIHHHHHHMVAIEKGGARLVFAPEVGGAVAAFTVDGREVLRPTAPQVDDALLTANFPLVSFCNRIPNGRFEWRGTSVTLPPNLEGHPHPLHGQGWRMPWAVEAIETDRALLVFEHPAGDWPWAYRAEQAFTLSETGFRVTLTVINTGEEDMPAGLGFHPYFPARPGERLAAQNDGVWLIDEDVLPTVRHAGRWGPDWAVGAPVAGHALIDHCYTGWNQRAVLSAPGRPDTVITASPDCAWLHVYAPPGEGYYCVEPCASRPNPFGEGETGMVTLCPGERRSIWMEIATG	not soluble
MGSDKIHHHHHHMVDFNNTLESAVKSVLKWEEKQIITETTIIRDVQGKVSLFLKSEQKATESDISNLEEILQNDLNGFFTGKIFWEKCDKKDKLRIEIIKSIIEESREEWKTEDGVDFYICERPIAKKAWVNATQDVEPVWQYQEAECSNKAKVVTFYSFKGGMGRTTALAGIALNLIEQNKNVMMIDMDIEAPGLSTLFFDDIVVEKGLLDYLIERPLNEQCDIHDYVLEVTDPALLKENDGNLYLMPAGKVDETYLQKLARIDYQDNRENNLKSSIKNLLEKLDNTYHPDYILIDARAGFHDMGGIAVAQIPHGAVLIGNGSKQSWDGMTQVIRTIAKGNTEEFSIMIVDSMCERATAERAIEQRKKFLNMAYTVCMENYYNEDQVMPGIDAEGVEHQPEYIPYDSELMQGFELFSDGYNDSEIRVQAYRDLLTGSAYKDITKRIQSWFGE	not soluble
MGSDKIHHHHHHMVEAQRVKEDEDAIRQALASLKNATGIPVTMYASVQSDSRLLINQWVGLRTPALQNLIIDNGVGVGGRVLKTRRPVGVSDYTRANVISHDLDPVIQDEGLHSIVAVPVIVQREVRGVLYVGVHSPVRLGDKVIEEVTMTARVLEQELAINSASRRSDNPRGGVAKQGRMMNGAEWEQIRSTHSKLRMLANRIEQEELRQELEELCDQMVAPVHVKQTTKLSARELDVLSCVALGHTNVEAAEEMGIGAETVKSYLRSVMRKLGAHTRYEAVNAARRIGALP	not soluble
MGSDKIHHHHHHMVIELKNEKVTVQFKEFGGALSSIKDQDGIEYLWQGNPAYWSSQAPVLFPICGSLRNDKGIYTSKKHSHRYGSIPRHGLVRKKNFRFEQLGKDSVVFTITPDKEMLMQYPYHFELKIIYTLKHTTIRTEYQVINKEKESIMPYFIGGHPGLNCPLFAGDRYEDYYLEFEKEETCTVPKSFPDTGLLDLQDRKIFLKGQKYLDLDYSLFTHDAITLDNLQSRSVSLRSKNHGGGLRLDFADFPYLILWSTANKSPFIALEPWSGLSTAVDESDYFEEKRNVSFVEPGQFDRNYFDITVL	not soluble
MGSDKIHHHHHHMVKGLDMIFYLHGFDATSPGNHEKMRQLQFIDPDVRLLSYSTLHPKHDMQHLLKEVAKQMQHTDDPEPLMVGVGLGAYWAERIGFLNGLKSVLINPNLHPENNMQGKIDRPEEYADIASKCVSEFRLKNTHRAMCIFSVNDDVLDCKANAQELSEYYAIEWDDVQPHKFPQLAAHLPKIKAFKLA	not soluble
MGSDKIHHHHHHMVLQHYFRHYCRSFCSPDDKALFMQCSRLTQVDFDQLTLGAQVLEADSHGAKVYLLTDGNFLKVFRRKRLISSALLRPYSQRFVDNAARLAQLGIPTLEVISQHKLDLPGRTAVLYRPLPGRTLLQMSRDDGFSWDTYLPRLIELIRQLHRSGVYFRSLHLGNVVVTPDQRLGLIDVADMRFLRPPLSARMIRRNVQHMVRYIERENLGDRFPLAAFEAALLTR	not soluble
MGSDKIHHHHHHMVLSKFMPHNPKFAAKFAEAAQNAHATAQALVDLLENYTDVERKVQRVLDFEHEGDRITSEVTNLLAESFIVPFDREDILALNAELDDLVDDMEEAASKLSLYRIERPLPQMAQLARVVEQQCALLAQGMPLIEDGRMVDELRQLSQKIRALEDEGDRISDEVARHLYDGVTEVPQMIVAMRSGEILNLIENASDQAQRIARTVESILLKNA	not soluble
MGSDKIHHHHHHMVMNRSSLDGFFDPSYLENILGNFTQATGLRIEAVNYRGETFSIPGSLDRSPFCQCIRNNPQGNKRCIDSYKRATSEAVKWDEPYFFRCHAGLVIWAVPILSKDITLGSIICGQVLLWKPDRFFIQELQDISKGLKIDPEELNQAVPNLSIISADQAQAAANLLFVVVSHILKNNLRALEEEKAYKVLQQQLHDQILKRKKGPRRTDISYESILKDERRFLQYIRLGDKSRAFATLENLIIKIYTKSTGEPQLAKDRIVELAALTSRAAVEGGSDAEQAVTILSSFYKKLENMERVEEIIYFIKQIVDEFLENIFILADKKHLSLVKDARSFILHNHAQPLTIADAAQHLFISPSHLSRLFRQQLDCTFNDYLTRVRVEKAVELLKKPEFSVKDVALAVGFQNQSHFAKVFRKYIGVTPLVYRNSLF	not soluble
MGSDKIHHHHHHMVRIALDPTPFHHDYDLLDFPDVTARLGYEYMQLTPHVDFGPFFRHPKADDDLVAALKKRAKDAGVTIPALLPVQRISWPEETQRVAAVRNIKRIIQLAVDLEVDTLNTEFSGRPERSEDSEDAFYRSMEELLPILEKEGIKFNIDPHPDDFVENGIEAWRVIRGLNSKQVGFVYVAPHSFHMGDQAEAILPAVGDRLGAVYLSDTFDHHKSHGLRYITNPPGNAVRVHQHLKIGDGDVNFEEIFSLLRSTGYLDREDALLVSNVFAEDEAADEVSRYQLEKIRSLIENA	not soluble
MGSDKIHHHHHHMVRMEEPAVKQGFLHLQQQQTFGKKWRRFAAVLYGESGCALARLELQDVPEKTRRGEATRKVVRLSDCLRVAEVGSEASSPRDTSAFILETKERLYLLAAPSAERSDWIQAICLLAFPGQRKGSPGLEEKSGSPCMEENELYSSSTTGLCKEYMVTIRPTEASERCRLRGSYTLRTGVSALELWGGPEPGTQLYDWPYRFLRRFGRDKATFSFEAGRRCLSGEGNFEFETRHGNEIFQALEKVITVQKNATPSGPPSLPATGPMMPTVLPRPESPYSRPHDSLPSPSPGTLVPGMRPGAPEGEYAVPFDTVAHSLRKSFRGLLTGPPPHLPDPLYDSIQEDPGAPLPDHIYDEPEGVAALSLYDRTQRPSGETWREQATADGGPSSLQQDSSVPDWPQATEYDNVILKKGP	not soluble
MGSDKIHHHHHHMVRQRMTGKERREQLISIGRAVFAERGFDGASVEEIAARANVSKPVVYEHFGGKEGLYAVVIDREMVKLEAMITGSLQHGRSRYRIEQAVLALLTYVEDETDGFLILVRDMRPGERRSYGTLLNDATTQVSHILGNAFTRSGLNAEYANLYGQALVGMVSMTAQWWLDERTPPKEEVAAHIVNLCWNGLTGMEADPKLTPISSAEGAIFGQEKESEA	not soluble
MGSDKIHHHHHHMVTRITINRGKRCVDEADRCHNRWHPDIEPAAEVDPGDIVVIETRDALDGQITANPGVDDVASADLNVVHPLTGPVYVRGAKPGDLLVVEVLDIKAEPFGFTVAIPGFGFLRDLFDKPYKIRWRIEGGYAFSEDLPNVRIPGDPFLGVMGVAPSKELLKEIKEREDRLLKRGGFVLPPTPEGAVPPREPVASEGLRTIPPRENGGNLDVRHFSPGSKIYFPVFVEGALFSVGDAHYAQGDGEVCGTAIEMGATATLRFGVISEGAKKYGIRFPIFKPSESSVRRFTHSKHVAVTGVGVIDSLNESENATLSAKHALLNLINLLEKAGYTREQAYLLASVAADLRLSQLVDVPNFTVTAFLPLDIFIEPPEVLKKLAE	not soluble
MGSDKIHHHHHHMVVIISAHNIATLEYQPMPKISDSGEPVEGVQAVALTLKILEALANARSTVGVTELSKQIGAGKARVYRHLQTLVTLGYALKDEESERYSTGPQLLRLSHTLSYRLDVVEAARLPARKLSDATGLTAVVARVEGDAIVVVHAEYSRADTMRSPRIGTTMQFHYTALGKIALAFGPAELRSRVLNEPLEQLTAYTITDRRDLMKKLEKIQELGWASSANEGMVGFNALAAPITDAHERLVGMICVVGSIKQLPATPPQNYLDALLSTADDISAYFGHVSRMPS	not soluble
MGSDKIHHHHHHMWKELVESISNDMDNVDECFRPTHFWRMGAEYLQQDLDTYGITKFRSLPSTLGYFVPTYLFNGMITEPKKYAELASRCQDIVVTPKAKLFMTDFLSGESQARADFRVYLASQSNRAPYTEHFSESKVGEPVEHFEFEGRNYSRSSLNYLLGINFLKQHISDLSVKTVVEIGGGFGSLGEILLSDERNDTFYINVDIPPTCIFSTFYLQSVFGQSHVADYSVLSKQALVIDDLRSKHKAAIMCPWQLPSLEGKIDLFVNFISFQEMEPDIVENYLSEIDRLQSTYILLRNLREGKQLAHDDSQVGVKKAIKSDDYDKFLPDYELLATNVLPFGYQTIDGFHSELRLYRRKQPKLG	not soluble
MGSDKIHHHHHHMWPNPALDTITHQWAQVFTNGGGLASLTDMIEQDVVVVGGGMVGAALAAGLGRAGLSVTVLENHMPQAFEASQPLDVRVSALSVASEALLERLDAWAGILSRRAVPYLGLETWEIESCITRFHASQIGADHLGHIVENRVVQLALWDLLSTLDSVTVKAPVNVMGFERLVDEDAICVALDSGERIKAKLLVGADGANSQVRAFAHIGVTGWDYAQSAMLINIATACEQQDVTWQQFTPQGPRSLLPLPGKNASLVWYDDASTIARLAKLNPNELADSIRAHFPARLDRDFRVLDKGHFKLTRRHAQRYFDANLVLIGDAAHTINPLAGQGVNLGFKDVDVLLDEIVSAVKKGENWHTKSVLERYQQRRWRDNQLMMSTMDAFYASFSNDLLPVKLLRNAALRLANVDGPIKRQVLKYAMGLK	not soluble
